# In US20040208880:
# T1: GST fusion containing the C-terminal 19 amino acids of DLC1/PIN
# T1 chain: KHFIYFYLGQVAILLFKSG
# B1: GST-Pak1 fusion protein, wild-type (amino acids 1-545) (protein)
# chain: MSNNGLDIQDKPPAPPMRNTSTMIGVGSKDAGTLNHGSKPLPPNPEEKKKKDRFYRSILPGDKTNKKKEKERPEISLPSDFEHTIHVGFDAVTGEFTGMPEQWARLLQTSNITKSEQKKNPQAVLDVLEFYNSKKTSNSQKYMSFTDKSAEDYNSSNALNVKAVSETPAVPPVSEDEDDDDDDATPPPVIAPRPEHTKSVYTRSVIEPLPVTPTRDVATSPISPTENNTTPPDALTRNTEKQKKKPKMSDEEILEKLRSIVSVGDPKKKYTRFEKIGQGASGTVYTAMDVATGQEVAIKQMNLQQQPKKELIINEILVMRENKNPNIVNYLDSYLVGDELWVVMEYLAGGSLTDVVTETCMDEGQIAAVCRECLQALEFLHSNQVIHRDIKSDNILLGMDGSVKLTDFGFCAQITPEQSKRSTMVGTPYWMAPEVVTRKAYGPKVDIWSLGIMAIEMIEGEPPYLNENPLRALYLIATNGTPELQNPEKLSAIFRDFLNRCLDMDVEKRGSAKELLQHQFLKIAKPLSSLTPLIAAAKEATKNNH
# How the values were obtained:
# [1] = target: GST-DLC1/PIN with deletion of Ser88
# [2] = target: T1, GST fusion containing the C-terminal 19 …
# [3] = target: GST-DLC1/PIN fusion protein (wild type)
protein,measurement,setting,value
B1,in vitro kinase assay with DLC1/PIN deletions,[1],Deletion of Ser88 of DLC1/PIN completely abolished the ability of the Pak1 to phosphorylate DLC1/PIN
same,in vitro kinase assay with DLC1/PIN deletions,[2],GST fusion containing the C-terminal 19 amino acids of DLC1/PIN was efficiently phosphorylated by Pak1
same,in vitro kinase assay (phosphorylation of GST-DLC1/PIN by purified Pak1 enzyme),[3],The Pak1 enzyme efficiently phosphorylated DLC1/PIN
